Source: article PMC11743138, “Structural basis for the interaction between the Drosophila RTK Sevenless (dROS1) and the GPCR BOSS” (Nature Communications, 2025)

Tests used:
[1] = molecular target: T1, dROS1 (Sevenless) extracellular region construct 1-4, his-tagged (D. melanogaster, UniProt P13368 126-1298); assay: SPR; BIAcore T200; dROS1 constructs covalently coupled (NHS/EDC) to a CM5 chip, BOSS ECR proteins flowed over at 10 µL/min for 180 s; 20 mM HEPES pH 7.5, 100 mM NaCl; plateau RU against BOSS concentration fitted to a single-site specific binding model; conditions: both partners purified
T1 construct: Sevenless (dROS1), D. melanogaster, N-terminus of the ECR to the fourth FNIII domain, residues 126-1298; His tag is said to be kept for the HDX-MS experiment (immobilised on Ni resin); Factor Xa cut site after the His tag; also called dROS1 (1-4); N-terminal region of dROS1; source: Trichoplusia ni (Hi5) cells, baculovirus, purified from the medium (Ni resin, SEC); not shown: His8, N-terminal, …
T1 sequence (looked up): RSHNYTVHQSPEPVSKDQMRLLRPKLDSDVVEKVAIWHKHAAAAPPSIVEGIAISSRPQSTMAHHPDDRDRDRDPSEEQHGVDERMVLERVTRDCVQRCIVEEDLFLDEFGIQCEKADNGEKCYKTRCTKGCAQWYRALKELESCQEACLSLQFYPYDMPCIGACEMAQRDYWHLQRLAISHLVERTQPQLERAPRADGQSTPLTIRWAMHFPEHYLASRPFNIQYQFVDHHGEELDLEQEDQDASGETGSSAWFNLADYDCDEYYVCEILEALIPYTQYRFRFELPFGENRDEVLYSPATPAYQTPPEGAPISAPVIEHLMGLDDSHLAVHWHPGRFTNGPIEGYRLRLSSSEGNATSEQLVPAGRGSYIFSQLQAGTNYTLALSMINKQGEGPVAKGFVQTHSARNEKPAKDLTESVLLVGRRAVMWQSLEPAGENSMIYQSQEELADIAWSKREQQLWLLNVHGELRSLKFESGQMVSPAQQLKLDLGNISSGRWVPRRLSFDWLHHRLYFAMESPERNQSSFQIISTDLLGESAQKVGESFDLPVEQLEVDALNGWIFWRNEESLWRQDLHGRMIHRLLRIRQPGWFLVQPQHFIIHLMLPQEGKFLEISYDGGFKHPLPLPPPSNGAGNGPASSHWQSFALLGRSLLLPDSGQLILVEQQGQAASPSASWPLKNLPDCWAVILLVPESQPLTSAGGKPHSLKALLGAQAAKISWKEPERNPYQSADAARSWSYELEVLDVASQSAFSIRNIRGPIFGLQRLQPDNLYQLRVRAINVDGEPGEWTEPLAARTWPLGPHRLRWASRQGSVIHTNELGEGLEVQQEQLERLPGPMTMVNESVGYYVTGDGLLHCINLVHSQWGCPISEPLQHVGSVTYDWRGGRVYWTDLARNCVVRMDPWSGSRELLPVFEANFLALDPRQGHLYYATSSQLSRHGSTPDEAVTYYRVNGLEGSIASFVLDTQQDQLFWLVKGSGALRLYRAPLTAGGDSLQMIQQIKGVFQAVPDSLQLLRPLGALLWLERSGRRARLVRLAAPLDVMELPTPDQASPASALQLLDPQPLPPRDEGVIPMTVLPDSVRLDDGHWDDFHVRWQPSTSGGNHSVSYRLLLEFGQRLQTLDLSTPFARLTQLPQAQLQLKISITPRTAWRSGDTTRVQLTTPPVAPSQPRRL

[2] = molecular target: T2, dROS1 (Sevenless) full extracellular region, construct 1-9 (D. melanogaster, UniProt P13368 126-2113); assay: as above; conditions: both partners purified
T2 construct: Sevenless (dROS1), D. melanogaster, extracellular region with FNIII domains 1 to 9, residues 126-2113; A Factor Xa cut site stands between the N-terminal octa-histidine tag and the protein; Coupled covalently to a CM5 chip in SPR; also called dROS1 1-9; full ECR of dROS1; source: Trichoplusia ni (Hi5) cells, baculovirus, purified from the medium (Ni resin, SEC)

[3] = molecular target: T3, dROS1 (Sevenless) extracellular region construct 2-3 (D. melanogaster, UniProt P13368 440-931); assay: SPR
T3 chain: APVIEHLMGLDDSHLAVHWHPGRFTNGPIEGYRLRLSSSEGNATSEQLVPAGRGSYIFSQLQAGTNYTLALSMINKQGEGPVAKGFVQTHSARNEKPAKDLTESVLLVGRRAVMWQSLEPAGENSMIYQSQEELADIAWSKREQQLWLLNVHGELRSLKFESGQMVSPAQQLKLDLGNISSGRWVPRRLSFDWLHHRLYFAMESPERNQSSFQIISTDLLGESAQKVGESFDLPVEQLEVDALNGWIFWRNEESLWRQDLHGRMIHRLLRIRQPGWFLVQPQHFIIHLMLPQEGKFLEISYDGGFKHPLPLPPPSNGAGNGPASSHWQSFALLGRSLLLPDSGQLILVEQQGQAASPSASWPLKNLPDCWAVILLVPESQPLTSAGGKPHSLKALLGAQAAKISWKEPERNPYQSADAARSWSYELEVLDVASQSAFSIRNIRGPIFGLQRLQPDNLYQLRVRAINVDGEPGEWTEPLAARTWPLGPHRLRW

B1: BOSS (Bride Of Sevenless) extracellular region, His tag cleaved (domain or fragment, D. melanogaster, UniProt P22815 102-510, looked up)
chain: GTTASLVPEICLNGLQLTVNSADEGTVIRKQEEFVKILEGDVVLSVLTKDPDSALFVINRVNQANLIMADFEIGIRAISIDNASLAENLLIQEVQFLQQCTTYSMGIFVDWELYKQLESVIKDLEYNIWPIPGTRAHLFPKVAHLLHQMPWGEKIASVEIATETLEMYNEFMEAARQEHMCLMHFKSDDNVYIMFGNKLASHFKENGTLFSVPTDRTDDEFLADLPNRAFVLMENEIDLSTAVELDATPTALDEILIGKSVLPSRVLSFAGSIIDLMNWLRGSLSKHCKRGEEHDLYVLESCFNFLNFIEDWRTSEYRQAHDTAEILSLLLMRKLGTAMNFQMYQKKVLTLDKITGESRTELREIASQNFVTNVTTYYHYNRDNHTSLELKTKFGQVFNCQYSAGDNRR
notes: Bride of sevenless (BOSS), D. melanogaster, extracellular region, residues 102-510; also called BOSS ECR; BOSSWT; source: Trichoplusia ni (Hi5) cells, baculovirus, purified from the medium (Ni resin, SEC; Factor Xa cleavage, Ni flow-through, SEC); not shown: His8, N-terminal, cleaved
- Kd [1]: 3 to 5 µM
- Kd [2]: 4.4 µM
- Kd [3]: 5 µM
